For orientation: stoichiometry N means a count of units in the complex or per binding partner.

Consider one protein from PMC5620058, “IL-12p35 induces expansion of IL-10 and IL-35-expressing regulatory B cells and ameliorates autoimmune disease” (Nature Communications, 2017).

This data set deals with the molecule itself. Briefly: AUC; sedimentation equilibrium, native conditions, non-reducing; peak fraction of Superose-6 further purified by Centricon filtration.

B1: mouse recombinant IL-12p35 (rIL-12p35; HBM-p35-Flag-His) (natural protein, UniProt P43431 23-215, looked up)
chain: RVIPVSGPARCLSQSRNLLKTTDDMVKTAREKLKHYSCTAEDIDHEDITRDQTSTLKTCLPLELHKNESCLATRETSSTTRGSCLPPQKTSLMMTLCLGSIYEDLKMYQTEFQAINAALQNHNHQQIILDKGMLVAIDELMQSLNHNGETLRQKPPVGEADPYRVKMKLCILLHAFSTRVVTINRVMGYLSSA
notes: IL-12p35 (Il12a), mouse; cDNA amplified with the printed primers and cloned behind the honeybee melittin (HBM) secretion signal of pMIB; The same construct was obtained as a monomer (~27 kDa, FPLC fractions 29-30) and as a p35−p35 homodimer (~56-57 kDa, fractions 20-21); also called p35−p35; source: purified (Ni-NTA, Centricon filtration, Sephacryl S-200 and Superose-6 FPLC)
For the protein B1, the “stoichiometry N” value is 2.
